# Experimental data taken from IntAct's records for PubMed 10633111.
# B1: Protein virB8 (Agrobacterium tumefaciens (strain C58 / ATCC 33970)), P17798 (parent)
# chain: MKGSEYALLVARETLAEHYKEVEAFQTARAKSARRLSKVIAAVATIAVLGNVAQAFTIATMVPLIRLVPVYLWIRPDGTVDSEVSVSRLPATQEEAVVNASLWEYVRLRESYDADTAQYAYDLVSNFSAPMVRQNYQQFFNYPNPTSPQVILGKHGRLEVEHIASNDVTPGVQQIRYKRTLIVDGKMPMASTWTATVRYEKVTSLPGRLRLTNPGGLVVTSYQTSEDTVSNAGHSEP
# partner: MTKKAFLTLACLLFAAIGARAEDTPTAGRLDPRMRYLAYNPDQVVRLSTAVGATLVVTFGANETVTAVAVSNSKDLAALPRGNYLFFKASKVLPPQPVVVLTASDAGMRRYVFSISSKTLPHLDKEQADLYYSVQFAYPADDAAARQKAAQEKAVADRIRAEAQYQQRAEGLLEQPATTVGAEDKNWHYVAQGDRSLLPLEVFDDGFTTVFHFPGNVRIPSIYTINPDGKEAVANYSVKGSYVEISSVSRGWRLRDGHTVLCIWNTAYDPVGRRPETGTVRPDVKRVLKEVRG
# B2: Protein virB8 (Agrobacterium tumefaciens (strain C58 / ATCC 33970)), P17798 (parent)
# chain: B1 chain
# partner: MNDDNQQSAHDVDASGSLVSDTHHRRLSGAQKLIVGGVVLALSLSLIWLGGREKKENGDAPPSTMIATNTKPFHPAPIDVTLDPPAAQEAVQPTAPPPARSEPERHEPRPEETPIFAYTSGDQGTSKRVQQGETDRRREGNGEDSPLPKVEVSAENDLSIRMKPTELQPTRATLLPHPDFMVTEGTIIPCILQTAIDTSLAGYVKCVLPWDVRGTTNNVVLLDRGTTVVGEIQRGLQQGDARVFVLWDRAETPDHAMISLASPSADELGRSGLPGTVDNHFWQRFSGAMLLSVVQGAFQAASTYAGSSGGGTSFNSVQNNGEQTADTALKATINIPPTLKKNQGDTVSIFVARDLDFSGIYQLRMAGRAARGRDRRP
# Variants of: B1
# Conditions: with virb9_agrfc virB9, P17799
row,Variant,effect of a mutation on the interaction
1,S87L,disrupting interaction

# Variants of: B2
# Conditions: with virba_agrfc virB10, P17800
row,Variant,effect of a mutation on the interaction
1,S87L,decreasing interaction
